Data reported in paper PMC9972320.
pKd: −log10 of the molar value.

Biological target: MSI1 RRM12 (human) (UniProt O43347)
Assay: ITC
Conditions: ITC: 20 mM HEPES pH 7.5, 150 mM NaCl, 3 mM MgCl2, 25 C
[1] = 30 uM RNA in cell, 600 uM protein titrant

MSI1 RRM12 (human), sequence (O43347 20-191): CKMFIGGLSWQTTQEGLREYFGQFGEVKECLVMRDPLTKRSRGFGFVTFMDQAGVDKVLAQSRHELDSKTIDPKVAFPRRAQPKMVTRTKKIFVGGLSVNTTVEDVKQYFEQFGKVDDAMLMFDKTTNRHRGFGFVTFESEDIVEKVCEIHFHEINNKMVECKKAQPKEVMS

Substance | pKd [1] | pKd | other results
DENV4 3'UTR | 3.47 | – | –
JEV 3'UTR | 3.66 | – | –
MVEV 3'UTR | 3.58 | – | –
USUV 3'UTR | 3.52 | – | –
ZIKV 3'SL | – | 4.18 | –
ZIKV 3'UTR WT | – | 5.60 | –
ZIKV xrRNA1 | – | – | pKd ([…]): 4.02
ZIKV xrRNA2 deltaP4 | – | 5.24 | –
